This is an account of results in PMC4812828 (Nature structural & molecular biology, 2016).

The target of this assay is T1, Cdc45 (S. cerevisiae, UniProt Q08032 1-650).
T1 sequence: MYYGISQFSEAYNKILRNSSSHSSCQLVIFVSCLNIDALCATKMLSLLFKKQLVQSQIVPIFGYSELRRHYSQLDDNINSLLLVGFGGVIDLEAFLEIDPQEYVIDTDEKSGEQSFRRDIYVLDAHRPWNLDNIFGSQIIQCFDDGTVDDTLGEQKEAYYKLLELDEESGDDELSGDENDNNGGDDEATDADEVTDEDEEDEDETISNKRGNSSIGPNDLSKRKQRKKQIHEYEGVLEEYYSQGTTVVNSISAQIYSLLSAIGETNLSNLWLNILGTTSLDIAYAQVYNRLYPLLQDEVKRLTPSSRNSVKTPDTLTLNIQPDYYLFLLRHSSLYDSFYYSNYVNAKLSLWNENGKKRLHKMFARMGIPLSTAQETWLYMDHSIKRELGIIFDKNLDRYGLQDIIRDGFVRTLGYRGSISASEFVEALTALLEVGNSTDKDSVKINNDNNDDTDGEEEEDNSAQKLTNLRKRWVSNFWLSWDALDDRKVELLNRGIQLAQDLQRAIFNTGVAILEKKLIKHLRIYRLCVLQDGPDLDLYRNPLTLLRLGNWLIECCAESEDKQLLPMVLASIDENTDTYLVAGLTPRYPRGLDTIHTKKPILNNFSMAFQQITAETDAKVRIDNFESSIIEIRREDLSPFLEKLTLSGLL
Put plainly: cryo-EM structure.

B1: Psf1 (natural protein)
chain: MYGDLGNKLVLEAKRTKQLYARSNQDVNLPMYHEDIIRNILKEVSNLRKNTEYLKEQQQLGMLDDKVAKCQYFVTLLCMERNKRCLLAYQRLRTDILDSMAWNNNGLDLMSSITFSQQDTNNLSHQEQEYLKEYCDLITDLKSGDLVDIDLSGSLVPPSDVFIDVRVLKDAGEIQTEYGVFNLIKDSQFFVRQSDVERLIQQGYLQKI
With B1, the binding result was “binds”.

B2: Psf2 (natural protein)
chain: MSLPAHLQQTFSPEEIQFIVENEPIKIFPRITTRQKIRGDDRGTGNHTRWQLITTDDKALNNMVAMRSTEVVLWIALLLKQQSKCSIVAPQWLTTKELDRKIQYEKTHPDRFSELPWNWLVLARILFNKAKDDFHDPIHELRGKIQDLREIRQIKVLKGLKYLNESHLQLDNLSLLEINELRPFITEIMDKLREIHTASLTAGTENDEEEFNI
On to B2, for which the binding result is on record as “binds”.
